The numbers were not newly measured in PMC6858539, which cites them from elsewhere.

Like-named read-outs stand apart in the source and are kept apart here.

The target of series [1] is RodZ nascent chain on ribosome (RNC-RodZ) (Escherichia coli) (UniProt P27434).
For series [2] the target is unchanged. This is another data set of the same source.

UniProt P27434, sequence (P27434 whole entry): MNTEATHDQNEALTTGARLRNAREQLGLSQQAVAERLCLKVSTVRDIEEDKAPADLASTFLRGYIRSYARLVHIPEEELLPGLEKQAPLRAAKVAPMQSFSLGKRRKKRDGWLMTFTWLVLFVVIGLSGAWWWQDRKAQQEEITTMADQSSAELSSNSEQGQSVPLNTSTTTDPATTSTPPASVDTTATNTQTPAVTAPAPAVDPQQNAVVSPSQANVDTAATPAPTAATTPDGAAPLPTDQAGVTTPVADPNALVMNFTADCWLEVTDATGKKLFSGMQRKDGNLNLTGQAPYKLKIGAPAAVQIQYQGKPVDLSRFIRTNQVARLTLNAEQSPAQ

By Kd is commonly meant a measure of binding affinity in units of concentration. Take SRP (from UniProt P0AGD7): in series [1], the Kd was 24 nM.
As for SecA (from UniProt P10408), in series [2], the Kd was < 1 nM.
